Laboratory results reported in patent US20220386594A1 (IBI AG INNOVATIVE BIO INSECTICIDES, published 2022).
Positions count from the first letter of the chain named.

T1: Helicoverpa armigera NPC1 sterol transporter (Helicoverpa armigera)
T1 construct: the tag is not part of the printed entry; also called target NPC antigen; target NPC1 antigen
T1 chain: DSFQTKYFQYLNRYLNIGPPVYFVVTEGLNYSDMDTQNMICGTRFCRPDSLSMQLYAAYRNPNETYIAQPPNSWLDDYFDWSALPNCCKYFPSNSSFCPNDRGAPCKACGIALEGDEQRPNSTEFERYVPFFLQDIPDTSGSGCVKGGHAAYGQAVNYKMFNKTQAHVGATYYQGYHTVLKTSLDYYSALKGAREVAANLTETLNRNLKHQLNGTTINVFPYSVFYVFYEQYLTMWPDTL

T2: Helicoverpa armigera chitin synthase (Helicoverpa armigera)
T2 construct: the tag is not part of the printed entry; also called CHS; target CHS antigen
T2 chain: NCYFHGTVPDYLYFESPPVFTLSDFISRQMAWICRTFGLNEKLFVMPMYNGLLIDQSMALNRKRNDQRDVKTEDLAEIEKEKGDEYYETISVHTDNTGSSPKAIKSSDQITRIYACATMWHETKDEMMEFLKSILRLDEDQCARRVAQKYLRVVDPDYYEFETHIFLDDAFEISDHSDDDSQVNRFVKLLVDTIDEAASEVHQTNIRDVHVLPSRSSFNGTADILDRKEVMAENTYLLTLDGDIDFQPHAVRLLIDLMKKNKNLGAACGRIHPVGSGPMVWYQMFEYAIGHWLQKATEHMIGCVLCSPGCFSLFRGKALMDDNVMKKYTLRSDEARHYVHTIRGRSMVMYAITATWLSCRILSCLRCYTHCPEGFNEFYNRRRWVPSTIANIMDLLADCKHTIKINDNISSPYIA

T3: Helicoverpa armigera V-ATPase subunit c (Helicoverpa armigera)
T3 construct: also called V-ATPases Subunit C; ATPase V subunit c
T3 chain: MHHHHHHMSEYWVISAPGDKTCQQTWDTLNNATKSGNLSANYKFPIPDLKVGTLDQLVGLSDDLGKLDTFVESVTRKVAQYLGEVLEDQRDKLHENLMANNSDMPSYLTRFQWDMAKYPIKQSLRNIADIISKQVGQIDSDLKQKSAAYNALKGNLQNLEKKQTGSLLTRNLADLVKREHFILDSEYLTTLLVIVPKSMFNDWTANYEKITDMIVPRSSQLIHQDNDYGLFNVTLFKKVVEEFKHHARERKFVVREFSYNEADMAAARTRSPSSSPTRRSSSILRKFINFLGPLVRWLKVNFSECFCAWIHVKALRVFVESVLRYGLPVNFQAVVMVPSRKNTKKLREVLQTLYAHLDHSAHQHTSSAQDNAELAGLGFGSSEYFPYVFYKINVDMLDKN

B1: NPC04C01 (VHH)
VHH: QVQLQESGGGLVQAGGSLRLSCAASGRTFSSYVMGWFRQAPGKERELIGAINRSSTRLYYADSVKGRFSISRDNAKSTVYLQMNSLKPEDTAVYYCAADLVSILGKGYRDVDYWGQGTQVTVSS
notes: Llama nanobody, His-tagged, expressed in E. coli SHuffle T7; also called NPC4c; NPC4C
B2: NPC04D01 (VHH)
VHH: B1 VHH with A14P, L20V, R27F, T28S, S31N
notes: Llama nanobody, His-tagged, expressed in E. coli SHuffle T7; also called NPC4d; NPC4D
B3: NPC01C01 (VHH)
VHH: QVQLQESGGGLVQVGGSLRISCVASGRTGSYYAMGWFRQAPGKEREFVAAISWNGGMTDYADFVKGRFAISRDNAKTVSLQMNNLKPEDTALYYCTAGPARRSYSYRDGYDYWGQGTQVTVSS
notes: Llama nanobody, His-tagged, expressed in E. coli SHuffle T7; also called NPC1c; anti-NPC nanobody NPC01C01
B4: CHS18 (VHH)
VHH: QVQLQESGGGLVQAGGSLRLSCTASGRTFSSYSMAWFRQASGKEREIVAAVSRFGKFKYYADSVKGRFTISRDNAKNTLYLQMNSLKPEDTAVYYCAKTDGSSWYLDYWGQGTQVTVSS
notes: Llama nanobody, His-tagged, expressed in E. coli SHuffle T7; also called anti-CHS nanobody CHS18
B5: CHS01A (VHH)
VHH: QVQLQESGGGLVQAGGSLRLSCSASTSIASINAVGWYRQAPGKQRELVAVIVNGSTTRYADSVKGRFTISGDNAENTVPLLMSSLKPEDTAIYYCGARDLSGTYWGQGTQVTVSS
notes: Llama nanobody, His-tagged, expressed in E. coli SHuffle T7; also called CHS1a; anti-CHS nanobody CHS01A
B6: CHS24 (VHH)
VHH: QVQLQESGGGWVQPGGSLRLSCTISGLSRYYAMGWFRQVPGKERESVATISLRGGRTYYADSVEGRFTISRDNAKNTMYLQMNSLKPEDTAVYYCVADTTWGAPRSRYHYWGQGTQVTVSS
notes: Llama nanobody, His-tagged, expressed in E. coli SHuffle T7; also called anti-CHS nanobody CHS24
B7: CHS13 (VHH)
VHH: QVQLQESGGGLVQAGGSLRLSCTVSGGTFTTYTMAWFRQAPGKEREFVAQISWSGGITAYLDSVKGRFTISRDNAKNTVYLQMNSLKPEDTAVYYCARRGRKYEDDYWGQGTQVTVSS
notes: Llama nanobody, His-tagged, expressed in E. coli SHuffle T7; also called anti-CHS nanobody CHS13
B8: CHS22 (VHH)
VHH: QVQLQESGGGLVQAGGSLRLSCAASGGTFSGLTMGWFRQAPGKERDFVAAISWNGRFTYYKDSVKGRFAISRDNAKSTVYLQMTSLKPEDTAVYYCGADVLSGRGYRYWGQGTQVTVSS
notes: Llama nanobody, His-tagged, expressed in E. coli SHuffle T7; also called anti-CHS nanobody CHS22
B9: CHS08 (VHH)
VHH: QVQLQESGGGLVQAGSSLRLSCAASGRTFRYHAMGWFRQAPGKEREFVAGISTSGGMTYYPDSVKGRFTISRDNAKNTLYLQMNSLKPGDTAVYYCAKFHGDKGYGSSWYYDYWGQGTQVTVSS
notes: Llama nanobody, His-tagged, expressed in E. coli SHuffle T7; also called CHS8; anti-CHS nanobody CHS08
B10: CHS02A (VHH)
VHH: QVQLQESGGGLVQAGGSLRLSCAASRGTFSRYVMGWFRQGPGKEREFVAGISWSGISTYYADFVKGRFTISRDNAKNTVYLQMNSLKPEDTAVYYCAADPGRGYDYWGQGTQVTVSS
notes: Llama nanobody, His-tagged, expressed in E. coli SHuffle T7; also called CHS2a; anti-CHS nanobody CHS02A
B11: VAT0101B (VHH)
VHH: QVQLQESGGGLVQAGGSLRLSCAASGSTLSGYIMSWFRQPPGKERELVAAITYVGSTYVEDSVKGRFTISRDNAKNTVSLQMNSLKPEDTAVYYCRAREGEQLDFWGQGTQVTVSS
notes: Llama nanobody, His-tagged, expressed in E. coli SHuffle T7; also called anti-VAT nanobody VAT0101B
B12: VAT0101D (VHH)
VHH: B11 VHH with A14P, A23V, L29F
notes: Llama nanobody, His-tagged, expressed in E. coli SHuffle T7; also called anti-VAT nanobody VAT0101D
B13: VAT0101C (VHH)
VHH: B11 VHH with A14S, G16D, L29F
notes: Llama nanobody, His-tagged, expressed in E. coli SHuffle T7; also called anti-VAT nanobody VAT0101C
B14: VAT0101F (VHH)
VHH: B11 VHH with L11T, L29F
notes: Llama nanobody, His-tagged, expressed in E. coli SHuffle T7; also called anti-VAT nanobody VAT0101F
B15: VAT0101G (VHH)
VHH: B11 VHH with L29F, Y58W, V59Y, E60Q
notes: Llama nanobody, His-tagged, expressed in E. coli SHuffle T7; also called VATO101G; anti-VAT nanobody VAT0101G
B16: VAT0101E (VHH)
VHH: B11 VHH with G16D, L29F
notes: Llama nanobody, His-tagged, expressed in E. coli SHuffle T7; also called anti-VAT nanobody VAT0101E

Target: T1, Helicoverpa armigera NPC1 sterol …
Test: ELISA, plate coated with 10 ug/ml target protein, 2 ug/ml nanobody, anti-VHH-HRP, A450
B1: binds.
B2: binds.
B3: binds.

Target: T2, Helicoverpa armigera chitin synthase
Test: as above
B4: binds.
B5: binds.
B6: binds.
B7: binds.
B8: binds.
B9: binds.
B10: binds.

Target: T3, Helicoverpa armigera V-ATPase subunit c
Test: as above
B11: binds.
B12: binds.
B13: binds.
B14: binds.
B15: binds.
B16: binds.
